Blank lines part the entries; values can stand above or below the molecule they belong to.
How the values were obtained:
[1] = target: PKA (protein kinase A) catalytic unit, Promega; assay: cell-based or functional assay
[2] = tested on: T1, Lissamine rhodamine-labeled peptide substrate (Dye-RPKPVE-Norvaline-WRKpSA)
T1 sequence: RPKPVEXWRKSA

[3] = target: T2, Lissamine rhodamine-labeled peptide substrate (Dye-QQQEVYGMMPRDpSA)
T2 chain: QQQEVYGMMPRDSA

IC50 of inhibition of PKA activity (phosphorylation of Lissamine Rhodamine-labeled Kemptide, Fe(III) fluorescence quench assay) [1]: 2.6 nM
Molecule: PKI, a known synthetic peptide inhibitor of PKA

Molecule: Recombinant MMP-3 catalytic subunit (Matrix Metalloproteinase 3), Calbiochem
Km (protease assay, fluorescence quench) [2]: Km was 1.44±0.15 µM

B1: Calpain 1 from human erythrocytes, Calbiochem (protein)
chain 1: SEEIITPVYCTGVSAQVQKQRARELGLGRHENAIKYLGQDYEQLRVRCLQSGTLFRDEAFPPVPQSLGYKDLGPNSSKTYGIKWKRPTELLSNPQFIVDGATRTDICQGALGDCWLLAAIASLTLNDTLLHRVVPHGQSFQNGYAGIFHFQLWQFGEWVDVVVDDLLPIKDGKLVFVHSAEGNEFWSALLEKAYAKVNGSYEALSGGSTSEGFEDFTGGVTEWYELRKAPSDLYQIILKALERGSLLGCSIDISSVLDMEAITFKKLVKGHAYSVTGAKQVNYRGQVVSLIRMRNPWGEVEWTGAWSDSSSEWNNVDPYERDQLRVKMEDGEFWMSFRDFMREFTRLEICNLTPDALKSRTIRKWNTTLYEGTWRRGSTAGGCRNYPATFWVNPQFKIRLDETDDPDDYGDRESGCSFVLALMQKHRRRERRFGRDMETIGFAVYEVPPELVGQPAVHLKRDFFLANASRARSEQFINLREVSTRFRLPPGEYVVVPSTFEPNKEGDFVLRFFSEKSAGTVELDDQIQANLPDEQVLSEEEIDENFKALFRQLAGEDMEISVKELRTILNRIISKHKDLRTKGFSLESCRSMVNLMDRDGNGKLGLVEFNILWNRIRNYLSIFRKFDLDKSGSMSAYEMRMAIESAGFKLNKKLYELIITRYSEPDLAVDFDNFVCCLVRLETMFRFFKTLDTDLDGVVTFDLFKWLQLTMFA
chain 2: MFLVNSFLKGGGGGGGGGGGLGGGLGNVLGGLISGAGGGGGGGGGGGGGGGGGGGGTAMRILGGVISAISEAAAQYNPEPPPPRTHYSNIEANESEEVRQFRRLFAQLAGDDMEVSATELMNILNKVVTRHPDLKTDGFGIDTCRSMVAVMDSDTTGKLGFEEFKYLWNNIKRWQAIYKQFDTDRSGTICSSELPGAFEAAGFHLNEHLYNMIIRRYSDESGNMDFDNFISCLVRLDAMFRAFKSLDKDGTGQIQVNIQEWLQLTMYS
Km (protease assay, fluorescence quench) [3]: Km was 0.17±0.01 µM

Reference: patent publication US20050106655A1
